Assay results reported in patent US8883967B2, “Branched amphipathic oligo-peptides that self-assemble into vesicles” (Kansas State University Research Foundation, priority 2009, dated 2014).
No end group written: not given here.

What was measured:
[1] = tested on: Human Lens Epithelial (HLE) cells; experiment: Uptake of 5,6-carboxyfluorescein-loaded peptide vesicles by cells, fluorescence microscopy; type: cell-based; conditions: 12 hours of incubation, 37° C.
Experimental: Human Lens Epithelial (HLE) cells were obtained from Dr. Dolores Takemoto's lab (Kansas State University). These adherent cells were grown to roughly 80% confluence on coverslips placed in 12 well plates with 1 ml Dulbecco's Modified Eagle Medium (DMEM), Stock solutions of bis(h9)-K-K4 and bis(h5)-K-K4 dissolved in DDI water were mixed together using the protocol described in Example 4 to achieve a final concentration of 0.025 mM of each peptide in the mixture and 600 μL final volume. The sample was then dried by spinning in a speed vacuum for about 3 hours until almost all of the solvent was removed. The dried sample was then rehydrated with a 0.5 mM solution of the fluorescent dye 5,6-carboxyfluorescein (MW=376.3 Da) dissolved in DDI water. The pH of the sample was adjusted to 7.4 using a dilute solution of NaOH. Next, 500 μL of the DMEM was replaced with the peptide vesicle solution loaded with 5,6-carboxyfluorescein. The cells were then allowed to grow at 37° C. under 5% CO2. At 4 hours and 12 hours after incubation with dye-loaded vesicles, the cells were washed twice with phosphate buffered saline (PBS) and fixed using 0.4% paraformaldehyde. The fixed cells were then mounted on a glass slide and pictures were taken using a fluorescence microscope. […]

[2] = linear peptides, low and neutral pH; cited from earlier work
[3] = Sedimentation analysis (analytical ultracentrifugation), N-acetyl capped peptides; type: physicochemical; conditions: 1 mM, DDI water, pH 7, 40,000 rpm, 20° C.
Experimental: In this procedure, N-acetyl capped peptides were prepared using the protocol described in Example 1 above and subjected to analytical ultracentrifugation for sedimentation analysis. Three different samples were prepared from bis(h5)-K-K4 alone, bis(h9)-K-K4 alone, and a 1:1 molar ratio mixture of the two peptides, each with a final peptide concentration of 1 mM dissolved in DDI water and pH adjusted to 7 using a dilute solution of NaOH. For the analyses, 350 μL of each sample was loaded into a Beckman XL-I Analytical Ultracentrifuge cell and spun at 40,000 rpm for 3 hours at 20° C., with data collected using interference optics. The raw data was then processed using DCDT+2.2.1 software to obtain g(s*) distribution. Theoretical distribution (sum of individual peptide distribution) was obtained using OriginLab v. 7.0 software.

[4] = Confocal microscopy of vesicles in 5,6-carboxyfluorescein solution; type: physicochemical; conditions: single peptide alone
Experimental: About 25 μL of the sample was then mounted on a glass slide and covered with a coverslip and sealed. The slides were allowed to sit for 48-72 hours before pictures were taken using a confocal microscope. Upon sitting in the unbuffered 5,6-carboxyfluorescein solution for 48 hours, larger spherical entities than observed with TEM are formed, which can be seen with the light microscope. Specifically, in FIG. 7, peptides bis(h5)-K-K4 and bis(h9)-K-K4 at a 1:1 molar ratio when added to DDI water form larger vesicles on the order of 2-10 μm in diameter. […] The vesicles in this figure are large enough to have fluorescently-labeled peptide aggregates trapped within the vesicles.

**Q.** For “5,6-carboxyfluorescein [free fluorescent dye]”, which “cellular uptake of dye” value [1] is on record?
**A.** hardly any uptake of the dye

**Q.** Which vesicle formation [2] does the source give for “KKKFLIVIGSIIKKK [Linear … flanked by three lysine groups, from earlier studies (US 2009/0105449)]” here?
**A.** do not form vesicles

**Q.** With “KKKFLIVIKKK [Linear FLIVI flanked by three lysine groups, from earlier studies (US 2009/0105449)]” as the substance, how does the vesicle formation [2] read?
**A.** do not form vesicles

**Q.** Which “apparent S value” [3] does the source give for “N-acetyl capped bis(h5)-K-K4: bis(h5)-K-K4 with the N-termini of both hydrophobic tails capped with an acetyl group (chain 1 Ac-FLIVIKKKKK-NH2; chain 2 Ac-FLIVI; also: branched: chain 2 tail attached to branch lysine K6 of chain 1, linkage amine not given here)” here?
**A.** around 6 S

**Q.** Which “apparent S value” [3] does the source give for “N-acetyl capped bis(h9)-K-K4: bis(h9)-K-K4 with the N-termini of both hydrophobic tails capped with an acetyl group (chain 1 Ac-FLIVIGSIIKKKKK-NH2; chain 2 Ac-FLIVIGSII; also: branched: chain 2 tail attached to branch lysine K10 of chain 1, linkage amine not given here)” here?
**A.** ~10 S

**Q.** For “bis(h5)-K-K4: Branched amphipathic peptide: two FLIVI (SEQ ID NO: 4) tails on a branch lysine, KKKK C-terminal carboxyamide”, which “ability of the peptide by itself to form vesicle structures” value [4] is on record?
**A.** unable to form these structures

**Q.** Which “ability of the peptide by itself to form vesicle structures” value [4] does the source give for “bis(h9)-K-K4: Branched amphipathic peptide: two FLIVIGSII (SEQ ID NO: 3) tails on a branch lysine, KKKK C-terminal carboxyamide” here?
**A.** able to form these vesicle-like structures

**Q.** What about the “stability of vesicle-like structures formed by the peptide alone” value [4] of the same substance?
**A.** somewhat unstable and rapidly fuse to produce the larger structures
